Measurements as given in patent US20050182242A1, “Global analysis of protein activities using proteome chips” (priority 2001, published 2005).

Key:
PI(3,4)P2 liposomes = assay: Yeast proteome chip probed with PI(3,4)P2 liposomes; conditions: liposome binding signal on yeast proteome chip, Cy3-streptavidin detection
Description: (§1) To identify PI-binding proteins in yeast, liposomes were used as probes because the liposome provides the most relevant physiological condition to assay the interactors. Six types of liposomes were used. Each contains phosphatidylcholine (“PC”) with 1% (w/w) N-(biotinoyl)-1,2-dihexadecanoyl-sn-glycero-3-phosphoethanolamine, triethylammonium salt (biotin DHPE). The biotinylated lipid serves as a label that can be detected by Cy3-streptavidin (21). In addition to PC, the five other liposomes contain either 5% (w/w) PI(3)P, PI(4)P, PI(3,4)P2, PI(4,5)P2, or PI(3,4,5)P3 (FIG. 3A).
(§2) The protein-liposome interaction was assayed as follows. Appropriate amounts of each lipid in chloroform were mixed and dried under nitrogen. The lipid mixture was resuspended in TBS buffer by vortexing. The liposomes were created by sonication. Blocked proteome chips were washed three to five times in PBS buffer, and the extra liquid on the glass surface was removed by tapping the slides vertically on a KIMWIPE™. 200 μl of liposome solution was added to the proteome chip and immediately covered by a hydrophobic plastic cover slip (GRACE BIO-LAB™, USA). After trapped air bubbles were removed, the chip was incubated in a humidity chamber at RT for one hour. To remove the cover slip, the chip was immersed into large volume of PBS buffer (50 ml), so that the slip would float away. The chip was then moved to a second PBS bath (>50 ml) and washed 3×5 min with shaking at RT. After removing extra liquid on the surface of the chip, about 100 μl of Cy3 or Cy5 conjugated streptavidin (PIERCE™, USA; 1:2000 to 1:4000 dilution) was added to the surface and covered by a hydrophobic plastic cover slip (GRACE BIO-LABS™, USA). The chip was incubated for greater than 30 min in the dark at RT. The chip was then washed as described above. To completely remove the liquid on the chip, the chip was spun to dryness at 1500-2000 rpm for 5-10 min at RT.
(§3) • 1. S. Fields, Y. Kohara, D. J. Lockhart, Proc. Natl. Acad. Sci. 96, 8825 (1999); A. Goffeau et al., Science 274, 563 (1996). • 2 P. Ross-Macdonald et al., Nature 402, 413 (1999); J. L., DeRisi, V. R. Iyer, P. O. Brown, Science 278, 680 (1997); E. A. Winzeler et al., Science 285, 901 (1999). P. Uetz et al., Nature 403, 623 (2000); T. Ito et al., Proc. Natl. Acad. Sci. USA. 97, 1143 (2000) • 3 H. Zhu, M. Snyder, Curr. Opin. Chem. Biol. 5, 40 (2001). • 4 M. R. Martzen et al., Science 286, 1153 (1999). • 5 H. Zhu et al., Nat. Genet. 26, 283 (2000). • 6 G. MacBeath, S. L. Schreiber, Science 289, 1760 (2000). • 7 A. Caveman, J. Cell Sci. 113, 3543 (2000). • 8 P. Arenkov et al., Anal. Biochem 278, 123 (2000). • 9 D. A. Mitchell, T. K. Marshall, R. J. Deschenes, Yeast 9, 715 (1993). The expression vector pEGH was created by inserting an RGS-HisX6 epitope tag between the GST gene and the polycloning site of pEG(KG). The yeast ORFs were cloned using the strategy described previously (5), except every step was done in a 96-well format. Plasmid DNAs confirmed by DNA sequencing were reintroduced into both yeast (Y258) and E. coli (DH5a). […] 0.1 mM calcium was present in buffers in all subsequent steps. The chip was washed three times with PBS at RT. Cy3-conjugated streptavidin (Jackson IR, USA) (1:5000 dilution) was added to the chip and incubated for 30 min at RT. After extensive washing, the chip was spun dry and scanned using a microarray scanner; the data was subsequently acquired with the GENEPIX™ array densitometry software (Axon, USA). • 12 S. S. Hook, A. R. Means, Annu. Rev. Pharmacol. Toxicol.41, 471 (2001). • 13 M. S. Cyert, R. Kunisawa, D. Kaim, J. Thorner, Proc. Natl. Acad. Sci. USA 88, 7376 (1991). • 14 D. A. Stirling, K. A. Welch, M. J. Stark, EMBO J. 13, 4329 (1994). • 15 F. Bohl, Kruse, EMBO J. 19, 5514 (2000); E. Bertrand et al., Mol. Cell 2, 437 (1998). • 16 D. C. Winter, E. Y. Choe, R. Li, Proc. Nat. Acad Sci. USA 96, 7288 (1999). • 17 C.

PI(4,5)P2 liposomes = assay: Yeast proteome chip probed with PI(4,5)P2 liposomes; conditions: liposome binding signal on yeast proteome chip, Cy3-streptavidin detection
Description: as §1, §2, §3

PI(3,4,5)P3 liposomes = assay: Yeast proteome chip probed with PI(3,4,5)P3 liposomes; conditions: liposome binding signal on yeast proteome chip, Cy3-streptavidin detection
Description: as §1, §2, §3

[1] = tested on: phosphatidylcholine (PC) liposomes; assay: Yeast proteome chip probed with PC liposomes; conditions: liposome binding signal on yeast proteome chip, Cy3-streptavidin detection
Description: as §1, §2
as §3, with “Pharmacol. Toxicol.41, 471 (2001). • 13 M. S. Cyert, R. Kunisawa, D. Kaim, J. Thorner, Proc. Natl. Acad. Sci. USA 88, 7376 (1991). • 14 D. A. Stirling, K. A. Welch, M. J. Stark, EMBO J. 13, 4329 (1994). • 15 F. Bohl, Kruse, EMBO J. 19, 5514 (2000); E. Bertrand et al., Mol. Cell 2, 437 (1998). • 16 D. C. Winter, E. Y. Choe, R. Li, Proc. Nat. Acad Sci. USA 96, 7288 (1999). • 17 C.” left out

calmodulin = target: T1, calmodulin (Homo sapiens, UniProt P0DP23); assay: Yeast proteome chip probed with biotinylated calmodulin; type: binding; conditions: biotinylated calmodulin in the presence of calcium
T1 construct: purchased CalBiochem, USA
Description: To test for protein-protein interactions, the yeast proteome was probed with calmodulin (11). Calmodulin is a highly conserved calcium-binding protein involved in many calcium-regulated cellular processes and has many known physical partners (Hook et al., 2001, Annu. Rev. Pharmacol. Toxicol. 41:471). The calmodulin probe was biotinylated, and bound probe was detected using Cy3-labeled streptavidin. As a control, the yeast proteome was probed with Cy3-labeled streptavidin alone.
Generally, protein-protein interactions can be assayed as follows. Blocked proteome chips are washed three to five times in PBS buffer, and the extra liquid on the glass surface is removed by tapping the slides vertically on a KIMWIPE™. 200 ∞l of biotinylated protein probe is added to the proteome chip and immediately covered by a hydrophobic plastic cover slip (GRACE BIO-LABS™, USA). After trapped air bubbles are removed, the chip is incubated in a humidity chamber at room temperature (RT) for one hour. To remove the cover slip, the chip is immersed into large volume of PBS buffer (>50 ml), and the slip should float away. The chip is then moved to a second PBS bath (>50 ml) and washed 3×5 min with shaking at RT. […]

PI(4)P liposomes = assay: Yeast proteome chip probed with PI(4)P liposomes; conditions: liposome binding signal on yeast proteome chip, Cy3-streptavidin detection
Description: as §1, §2
as §3, with “Pharmacol. Toxicol.41, 471 (2001). • 13 M. S. Cyert, R. Kunisawa, D. Kaim, J. Thorner, Proc. Natl. Acad. Sci. USA 88, 7376 (1991). • 14 D. A. Stirling, K. A. Welch, M. J. Stark, EMBO J. 13, 4329 (1994). • 15 F. Bohl, Kruse, EMBO J. 19, 5514 (2000); E. Bertrand et al., Mol. Cell 2, 437 (1998). • 16 D. C. Winter, E. Y. Choe, R. Li, Proc. Nat. Acad Sci. USA 96, 7288 (1999). • 17 C.” left out

PI(3)P liposomes = assay: Yeast proteome chip probed with PI(3)P liposomes; conditions: liposome binding signal on yeast proteome chip, Cy3-streptavidin detection
Description: as §1
The protein-liposome interaction was assayed as follows. Appropriate amounts of each lipid in chloroform were mixed and dried under nitrogen. The lipid mixture was resuspended in TBS buffer by vortexing. The liposomes were created by sonication. Blocked proteome chips were washed three to five times in PBS buffer, and the extra liquid on the glass surface was removed by tapping the slides vertically on a KIMWIPE™. 200 μl of liposome solution was added to the proteome chip and immediately covered by a hydrophobic plastic cover slip (GRACE BIO-LAB™, USA). After trapped air bubbles were removed, the chip was incubated in a humidity chamber at RT for one hour. To remove the cover slip, the chip was immersed into large volume of PBS buffer (50 ml), so that the slip would float away. […]

six different liposomes = assay: Reverse membrane assay: proteins spotted on nitrocellulose probed with six liposomes; type: binding; conditions: HRP-conjugated streptavidin
Procedure: B. A reverse assay was carried out to test for protein-lipid interactions. The proteins were prepared and spotted onto nitrocellulose filters in a dilution series and probed with the six different liposomes. As a control, the six liposomes were also added to the BSA-blocked membrane. After extensive washing, the bound liposomes were detected using an HRP-conjugated streptavidin and an ECL kit.
C. Linear correlation between the binding signals and the amounts of Rim15p in a membrane assay. When liposome-binding signals of Rim15p from the membrane assay (FIG. 4B) were plotted against the concentration gradient of the spotted Rim15p, the binding signals of PI(4)P, PI(3,4)P2, PI(3)P, and PI(4,5)P2 correlated linearly with the amounts of Rim15p.
Therefore, six proteins, i.e., Rim15p, Eno2p, Hxk1p, Sps1p, Yg1059wp, and Gcn2p, were further tested for phosphoinositol binding using two types of standard assays (Williamson, 2000, Nat. Struct Biol. 7(10):834-7). For Rim15p, Eno2p, and Hxk1p, PI(4,5)P2 liposomes were first adhered to a nitrocellulose membrane, which was then blocked by BSA; different amounts of the GST fusion proteins and a GST control were used to probe the membrane, and bound proteins were detected using anti-GST antibodies. […] We also carried out the reverse assay for four GST fusion proteins, Rim15p, Sps1p, Yg1059wp, and Gcn2p (Guerra et al., 2000, Biosci. Rep. 20: 41). Different amounts of these purified proteins were spotted onto nitrocellulose filters and probed with the six different liposomes (FIG. 5B). The bound liposomes were detected using a horseradish peroxidase (“HRP”)-conjugated streptavidin.

| Substance | PI(3, 4)P2 (PI(3,4)P2 liposomes) | PI(4, 5)P2 (PI(4,5)P2 liposomes) | PI(3, 4, 5)P3 (PI(3,4,5)P3 liposomes) | PC [1] | calmodulin binding (calmodulin) | PI(4)P (PI(4)P liposomes) | PI(3)P (PI(3)P liposomes) | liposome binding in reverse membrane assay (six different liposomes) |
| --- | --- | --- | --- | --- | --- | --- | --- | --- |
| PET9: yeast GST-HisX6 fusion protein on proteome chip | −5.81 | 26.13 | 17.66 | 14.97 | – | – | – | – |
| Arc35p: component of the Arp2/3 actin-organizing complex | – | – | – | – | identified | – | – | – |
| RRP5: yeast GST-HisX6 fusion protein on proteome chip | 22.60 | 73.38 | 21.26 | 58.11 | – | 60.31 | – | – |
| SSB1: yeast GST-HisX6 fusion protein on proteome chip | 6.28 | 1.31 | 4.27 | 12.91 | – | 16.98 | – | – |
| GCN2: yeast GST-HisX6 fusion protein on proteome chip | 232.01 | 505.60 | 975.60 | 1087.04 | – | 1356.97 | 26.50 | bound strongest to PI(3)P and PI(4)P and PI(3,4)P2 |
| SDS3: yeast GST-HisX6 fusion protein on proteome chip | 3.45 | 4.35 | 9.67 | – | – | 11.76 | – | – |
